T1: corticotropin-releasing hormone (CRH) peptide (human and mouse (same sequence), not fully specified)
T1 peptide: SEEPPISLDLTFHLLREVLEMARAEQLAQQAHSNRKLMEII


Target: T1, corticotropin-releasing hormone (CRH) …
Assay: cell-based or functional assay

Binder | hCRHR1 Luciferase Reporter Assay IC50 [nM] | mCrhr1 Luciferase Reporter Assay IC50 [nM] | hCRHR1 Reporter IC50 [nM]
PR302341-59 (antibody, human IgG1, kappa, V domains shown) VH: QVQLVQSGAEVKKPGASVKVSCKASGYTFTDYFMKWVRQAPGQRLEWMGVINPNSGDIFYNQKFKGRVTITRDTSASTAYMELSSLRSEDTAVYYCARGTDRALFAYWGQGTLVTVSS VL: DVVMTQSPLSLPVTLGQPASISCRSGQSIVHSDANTYLEWYQQRPGQSPRLLIYKVSNRFSGVPDRFSGSGSGTDFTLKISRVEAEDLGVYYCFQGSHIPWTFGGGTKVEIKR | 1.04 | 4 | –
PR302341-68 (antibody, human IgG1, kappa, V domains shown) VH: QVQLVQSGAEVKKPGASVKVSCKASGYTFTDYFMKWVRQAPGQGLEWMGVINPNNGDIFYNQKFKGRVTMTVDKSTSTAYMELSSLRSEDTAVYYCARGTDRALFAYWGQGTLVTVSS VL: DVVMTQTPLSSPVTLGQPASISCRSGQSIVHSEGNTYLEWYQQRPGQPPRLLIYKVSNRFSGVPDRFSGSGAGTDFTLKISRVEAEDLGVYYCFQGSHIPWTFGGGTKVEIKR | 0.418 | – | –
PR302341-46 (antibody, human IgG1, kappa, V domains shown) VH: QVQLVQSGAEVKKPGASVKVSCKASGYTFTDYFMKWVRQAPGQGLEWMGVINPNNADIFYNQKFKGRVTMTVDKSTSTAYMELSSLRSEDTAVYYCARGTDRALFAYWGQGTLVTVSS VL: DVVMTQTPLSSPVTLGQPASISCRSGQSIVHSDANTYLEWYQQRPGQPPRLLIYKVSNRFSGVPDRFSGSGAGTDFTLKISRVEAEDLGVYYCFQGSHIPWTFGGGTKVEIKR | 1.27 | 1.52 | –
PR302341-47 (antibody, human IgG1, kappa, V domains shown) VH: QVQLVQSGAEVKKPGASVKVSCKASGYTFTDYFMKWVRQAPGQGLEWMGVINPNSGDIFYNQKFKGRVTMTVDKSTSTAYMELSSLRSEDTAVYYCARGTDRALFAYWGQGTLVTVSS VL: DVVMTQTPLSSPVTLGQPASISCRSGQSIVHSDANTYLEWYQQRPGQPPRLLIYKVSNRFSGVPDRFSGSGAGTDFTLKISRVEAEDLGVYYCFQGSHIPWTFGGGTKVEIKR | 1.04 | 1.6 | –
PR302341-54 (antibody, human IgG1, kappa, V domains shown) VH: QVQLVQSGAEVKKPGASVKVSCKASGYTFTDYFMKWVRQAPGQGLEWMGVINPNQGDIFYNQKFKGRVTMTVDKSTSTAYMELSSLRSEDTAVYYCARGTDRALFAYWGQGTLVTVSS VL: DVVMTQTPLSSPVTLGQPASISCRSGQSIVHSSGNTYLEWYQQRPGQPPRLLIYKVSNRFSGVPDRFSGSGAGTDFTLKISRVEAEDLGVYYCFQGSHIPWTFGGGTKVEIKR | 0.732 | 4.09 | –
PR302341-57 (antibody, human IgG1, kappa, V domains shown) VH: QVQLVQSGAEVKKPGASVKVSCKASGYTFTDYFMKWVRQAPGQRLEWMGVINPNQGDIFYNQKFKGRVTITRDTSASTAYMELSSLRSEDTAVYYCARGTDRALFAYWGQGTLVTVSS VL: DVVMTQSPLSLPVTLGQPASISCRSGQSIVHSDGNTYLEWYQQRPGQSPRLLIYKVSNRFSGVPDRFSGSGSGTDFTLKISRVEAEDLGVYYCFQGSHIPWTFGGGTKVEIKR | 0.573 | 6.48 | –
PR302341-61 (antibody, human IgG1, kappa, V domains shown) VH: QVQLVQSGAEVKKPGASVKVSCKASGYTFTDYFMKWVRQAPGQRLEWMGVINPNNADIFYNQKFKGRVTITRDTSASTAYMELSSLRSEDTAVYYCARGTDRALFAYWGQGTLVTVSS VL: DVVMTQSPLSLPVTLGQPASISCRSGQSIVHSEGNTYLEWYQQRPGQSPRLLIYKVSNRFSGVPDRFSGSGSGTDFTLKISRVEAEDLGVYYCFQGSHIPWTFGGGTKVEIKR | 1.88 | – | 1.82
PR302341-55 (antibody, human IgG1, kappa, V domains shown) VH: QVQLVQSGAEVKKPGASVKVSCKASGYTFTDYFMKWVRQAPGQRLEWMGVINPNNADIFYNQKFKGRVTITRDTSASTAYMELSSLRSEDTAVYYCARGTDRALFAYWGQGTLVTVSS VL: DVVMTQSPLSLPVTLGQPASISCRSGQSIVHSDGNTYLEWYQQRPGQSPRLLIYKVSNRFSGVPDRFSGSGSGTDFTLKISRVEAEDLGVYYCFQGSHIPWTFGGGTKVEIKR | 0.105 | 3.19 | –
PR302341-50 (antibody, human IgG1, kappa, V domains shown) VH: QVQLVQSGAEVKKPGASVKVSCKASGYTFTDYFMKWVRQAPGQGLEWMGVINPNSGDIFYNQKFKGRVTMTVDKSTSTAYMELSSLRSEDTAVYYCARGTDRALFAYWGQGTLVTVSS VL: DVVMTQTPLSSPVTLGQPASISCRSGQSIVHSEGNTYLEWYQQRPGQPPRLLIYKVSNRFSGVPDRFSGSGAGTDFTLKISRVEAEDLGVYYCFQGSHIPWTFGGGTKVEIKR | 1.48 | – | –
PR302341-49 (antibody, human IgG1, kappa, V domains shown) VH: QVQLVQSGAEVKKPGASVKVSCKASGYTFTDYFMKWVRQAPGQGLEWMGVINPNNADIFYNQKFKGRVTMTVDKSTSTAYMELSSLRSEDTAVYYCARGTDRALFAYWGQGTLVTVSS VL: DVVMTQTPLSSPVTLGQPASISCRSGQSIVHSEGNTYLEWYQQRPGQPPRLLIYKVSNRFSGVPDRFSGSGAGTDFTLKISRVEAEDLGVYYCFQGSHIPWTFGGGTKVEIKR | 1.34 | – | –
PR302341-51 (antibody, human IgG1, kappa, V domains shown) VH: QVQLVQSGAEVKKPGASVKVSCKASGYTFTDYFMKWVRQAPGQGLEWMGVINPNQGDIFYNQKFKGRVTMTVDKSTSTAYMELSSLRSEDTAVYYCARGTDRALFAYWGQGTLVTVSS VL: DVVMTQTPLSSPVTLGQPASISCRSGQSIVHSEGNTYLEWYQQRPGQPPRLLIYKVSNRFSGVPDRFSGSGAGTDFTLKISRVEAEDLGVYYCFQGSHIPWTFGGGTKVEIKR | 1.66 | – | –
PR302341-48 (antibody, human IgG1, kappa, V domains shown) VH: QVQLVQSGAEVKKPGASVKVSCKASGYTFTDYFMKWVRQAPGQGLEWMGVINPNQGDIFYNQKFKGRVTMTVDKSTSTAYMELSSLRSEDTAVYYCARGTDRALFAYWGQGTLVTVSS VL: DVVMTQTPLSSPVTLGQPASISCRSGQSIVHSDANTYLEWYQQRPGQPPRLLIYKVSNRFSGVPDRFSGSGAGTDFTLKISRVEAEDLGVYYCFQGSHIPWTFGGGTKVEIKR | 0.507 | 1.46 | –
PR302341-67 (antibody, human IgG1, kappa, V domains shown) VH: QVQLVQSGAEVKKPGASVKVSCKASGYTFTDYFMKWVRQAPGQGLEWMGVINPNNGDIFYNQKFKGRVTMTVDKSTSTAYMELSSLRSEDTAVYYCARGTDRALFAYWGQGTLVTVSS VL: DVVMTQTPLSSPVTLGQPASISCRSGQSIVHSDANTYLEWYQQRPGQPPRLLIYKVSNRFSGVPDRFSGSGAGTDFTLKISRVEAEDLGVYYCFQGSHIPWTFGGGTKVEIKR | 0.128 | – | –

Now from value to binder:

hCRHR1 Luciferase Reporter Assay IC50 [nM] | mCrhr1 Luciferase Reporter Assay IC50 [nM] | hCRHR1 Reporter IC50 [nM] | Binder
0.35 | 1.83 | – | PR302341-45 (antibody, human IgG1, kappa, V domains shown) VH: QVQLVQSGAEVKKPGASVKVSCKASGYTFTDYFMKWVRQAPGQGLEWMGVINPNQGDIFYNQKFKGRVTMTVDKSTSTAYMELSSLRSEDTAVYYCARGTDRALFAYWGQGTLVTVSS VL: DVVMTQTPLSSPVTLGQPASISCRSGQSIVHSDGNTYLEWYQQRPGQPPRLLIYKVSNRFSGVPDRFSGSGAGTDFTLKISRVEAEDLGVYYCFQGSHIPWTFGGGTKVEIKR
0.738 | – | – | PR302341-56 (antibody, human IgG1, kappa, V domains shown) VH: QVQLVQSGAEVKKPGASVKVSCKASGYTFTDYFMKWVRQAPGQRLEWMGVINPNSGDIFYNQKFKGRVTITRDTSASTAYMELSSLRSEDTAVYYCARGTDRALFAYWGQGTLVTVSS VL: DVVMTQSPLSLPVTLGQPASISCRSGQSIVHSDGNTYLEWYQQRPGQSPRLLIYKVSNRFSGVPDRFSGSGSGTDFTLKISRVEAEDLGVYYCFQGSHIPWTFGGGTKVEIKR
1.7 | 5.36 | – | PR302341-53 (antibody, human IgG1, kappa, V domains shown) VH: QVQLVQSGAEVKKPGASVKVSCKASGYTFTDYFMKWVRQAPGQGLEWMGVINPNSGDIFYNQKFKGRVTMTVDKSTSTAYMELSSLRSEDTAVYYCARGTDRALFAYWGQGTLVTVSS VL: DVVMTQTPLSSPVTLGQPASISCRSGQSIVHSSGNTYLEWYQQRPGQPPRLLIYKVSNRFSGVPDRFSGSGAGTDFTLKISRVEAEDLGVYYCFQGSHIPWTFGGGTKVEIKR
0.571 | 3.54 | – | PR302341-58 (antibody, human IgG1, kappa, V domains shown) VH: QVQLVQSGAEVKKPGASVKVSCKASGYTFTDYFMKWVRQAPGQRLEWMGVINPNNADIFYNQKFKGRVTITRDTSASTAYMELSSLRSEDTAVYYCARGTDRALFAYWGQGTLVTVSS VL: DVVMTQSPLSLPVTLGQPASISCRSGQSIVHSDANTYLEWYQQRPGQSPRLLIYKVSNRFSGVPDRFSGSGSGTDFTLKISRVEAEDLGVYYCFQGSHIPWTFGGGTKVEIKR
0.878 | 4.7 | – | PR302341-60 (antibody, human IgG1, kappa, V domains shown) VH: QVQLVQSGAEVKKPGASVKVSCKASGYTFTDYFMKWVRQAPGQRLEWMGVINPNQGDIFYNQKFKGRVTITRDTSASTAYMELSSLRSEDTAVYYCARGTDRALFAYWGQGTLVTVSS VL: DVVMTQSPLSLPVTLGQPASISCRSGQSIVHSDANTYLEWYQQRPGQSPRLLIYKVSNRFSGVPDRFSGSGSGTDFTLKISRVEAEDLGVYYCFQGSHIPWTFGGGTKVEIKR
0.552 | – | – | PR302341-69 (antibody, human IgG1, kappa, V domains shown) VH: QVQLVQSGAEVKKPGASVKVSCKASGYTFTDYFMKWVRQAPGQGLEWMGVINPNNGDIFYNQKFKGRVTMTVDKSTSTAYMELSSLRSEDTAVYYCARGTDRALFAYWGQGTLVTVSS VL: DVVMTQTPLSSPVTLGQPASISCRSGQSIVHSSGNTYLEWYQQRPGQPPRLLIYKVSNRFSGVPDRFSGSGAGTDFTLKISRVEAEDLGVYYCFQGSHIPWTFGGGTKVEIKR
0.946 | 3.29 | – | PR302341-52 (antibody, human IgG1, kappa, V domains shown) VH: QVQLVQSGAEVKKPGASVKVSCKASGYTFTDYFMKWVRQAPGQGLEWMGVINPNNADIFYNQKFKGRVTMTVDKSTSTAYMELSSLRSEDTAVYYCARGTDRALFAYWGQGTLVTVSS VL: DVVMTQTPLSSPVTLGQPASISCRSGQSIVHSSGNTYLEWYQQRPGQPPRLLIYKVSNRFSGVPDRFSGSGAGTDFTLKISRVEAEDLGVYYCFQGSHIPWTFGGGTKVEIKR
